From IntAct's records for PubMed 35512704

B1: Mothers against decapentaplegic homolog 4 (Homo sapiens), Q13485 (parent)
chain: MDNMSITNTPTSNDACLSIVHSLMCHRQGGESETFAKRAIESLVKKLKEKKDELDSLITAITTNGAHPSKCVTIQRTLDGRLQVAGRKGFPHVIYARLWRWPDLHKNELKHVKYCQYAFDLKCDSVCVNPYHYERVVSPGIDLSGLTLQSNAPSSMMVKDEYVHDFEGQPSLSTEGHSIQTIQHPPSNRASTETYSTPALLAPSESNATSTANFPNIPVASTSQPASILGGSHSEGLLQIASGPQPGQQQNGFTGQPATYHHNSTTTWTGSRTAPYTPNLPHHQNGHLQHHPPMPPHPGHYWPVHNELAFQPPISNHPAPEYWCSIAYFEMDVQVGETFKVPSSCPIVTVDGYVDPSGGDRFCLGQLSNVHRTEAIERARLHIGKGVQLECKGEGDVWVRCLSDHAVFVQSYYLDREAGRAPGDAVHKIYPSAYIKVFDLRQCHRQMQQQAATAQAAAAAQAAAVAGNIPGPGSVGGIAPAISLSAAAGIGVDDLRRLCILRMSFVKGWGPDYPRQSIKETPCWIEIHLHRALQLLDEVLHTMPIADPQPLD
partner: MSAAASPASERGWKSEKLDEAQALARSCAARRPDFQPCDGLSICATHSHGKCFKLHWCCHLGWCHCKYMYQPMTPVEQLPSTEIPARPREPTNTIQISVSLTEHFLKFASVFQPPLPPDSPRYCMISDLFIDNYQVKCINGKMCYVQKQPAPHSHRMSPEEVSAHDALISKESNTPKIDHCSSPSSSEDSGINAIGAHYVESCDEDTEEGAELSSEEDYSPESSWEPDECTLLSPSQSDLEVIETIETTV
B2: 14-3-3 protein zeta/delta (Homo sapiens), P63104 (parent)
chain: MDKNELVQKAKLAEQAERYDDMAACMKSVTEQGAELSNEERNLLSVAYKNVVGARRSSWRVVSSIEQKTEGAEKKQQMAREYREKIETELRDICNDVLSLLEKFLIPNASQAESKVFYLKMKGDYYRYLAEVAAGDDKKGIVDQSQQAYQEAFEISKKEMQPTHPIRLGLALNFSVFYYEILNSPEKACSLAKTAFDEAIAELDTLSEESYKDSTLIMQLLRDNLTLWTSDTQGDEAEAGEGGEN
B3: Mothers against decapentaplegic homolog 4 (Homo sapiens), Q13485 (parent)
chain: B1 chain
partner: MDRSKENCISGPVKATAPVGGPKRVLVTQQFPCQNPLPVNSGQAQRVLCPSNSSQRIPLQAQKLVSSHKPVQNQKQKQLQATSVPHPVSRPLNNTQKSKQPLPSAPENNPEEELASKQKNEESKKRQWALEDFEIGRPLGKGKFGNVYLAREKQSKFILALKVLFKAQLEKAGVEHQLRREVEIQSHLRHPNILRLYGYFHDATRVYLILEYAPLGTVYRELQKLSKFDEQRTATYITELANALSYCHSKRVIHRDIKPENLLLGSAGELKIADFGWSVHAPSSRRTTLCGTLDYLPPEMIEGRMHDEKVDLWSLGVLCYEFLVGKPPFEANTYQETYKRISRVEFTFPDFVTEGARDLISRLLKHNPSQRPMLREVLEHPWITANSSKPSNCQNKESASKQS
B4: Mothers against decapentaplegic homolog 4 (Homo sapiens), Q13485 (parent)
chain: B1 chain
partner: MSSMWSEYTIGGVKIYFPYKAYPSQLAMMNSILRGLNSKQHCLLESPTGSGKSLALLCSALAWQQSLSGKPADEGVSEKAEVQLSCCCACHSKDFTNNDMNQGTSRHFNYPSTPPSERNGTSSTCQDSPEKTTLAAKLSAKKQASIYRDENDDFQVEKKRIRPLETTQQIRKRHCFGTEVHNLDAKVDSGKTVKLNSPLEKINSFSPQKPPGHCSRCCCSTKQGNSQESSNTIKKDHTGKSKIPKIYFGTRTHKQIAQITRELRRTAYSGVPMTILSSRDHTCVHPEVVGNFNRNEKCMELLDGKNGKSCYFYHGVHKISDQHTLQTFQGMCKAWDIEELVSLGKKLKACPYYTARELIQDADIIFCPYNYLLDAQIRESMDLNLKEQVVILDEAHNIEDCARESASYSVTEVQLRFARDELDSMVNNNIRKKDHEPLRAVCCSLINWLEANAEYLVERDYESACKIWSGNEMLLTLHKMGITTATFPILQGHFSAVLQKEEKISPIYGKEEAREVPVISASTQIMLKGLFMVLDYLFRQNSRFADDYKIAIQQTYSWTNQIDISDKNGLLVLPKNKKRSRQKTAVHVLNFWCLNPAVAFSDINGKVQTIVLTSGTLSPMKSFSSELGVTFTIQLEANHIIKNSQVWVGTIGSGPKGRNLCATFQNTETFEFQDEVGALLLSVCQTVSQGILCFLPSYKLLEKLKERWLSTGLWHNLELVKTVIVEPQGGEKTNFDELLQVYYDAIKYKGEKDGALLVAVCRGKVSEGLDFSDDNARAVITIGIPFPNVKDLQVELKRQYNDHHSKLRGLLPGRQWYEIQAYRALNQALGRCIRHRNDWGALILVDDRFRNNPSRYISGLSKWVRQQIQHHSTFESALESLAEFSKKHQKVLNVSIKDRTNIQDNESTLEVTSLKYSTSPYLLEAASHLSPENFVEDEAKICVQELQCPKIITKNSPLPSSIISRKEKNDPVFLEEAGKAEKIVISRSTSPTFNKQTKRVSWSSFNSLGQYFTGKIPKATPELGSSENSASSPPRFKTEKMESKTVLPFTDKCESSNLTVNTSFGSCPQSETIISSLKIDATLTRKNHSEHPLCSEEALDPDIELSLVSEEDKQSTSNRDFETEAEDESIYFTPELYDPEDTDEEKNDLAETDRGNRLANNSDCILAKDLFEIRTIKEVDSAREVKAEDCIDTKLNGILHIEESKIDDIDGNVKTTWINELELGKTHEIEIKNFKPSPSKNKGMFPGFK

Variants of: B1
Details: with cc070_human C3orf70, A6NLC5

Variant	effect of a mutation on the interaction
D351H	with no effect

Variants of: B1
Details: with cc070_human C3orf70, A6NLC5
Remark: another data set of the same source

Variant	effect of a mutation on the interaction
R361H	with no effect

Variants of: B1
Details: with cc070_human C3orf70, A6NLC5
Remark: another data set of the same source

Variant	effect of a mutation on the interaction
R361C	with no effect

Variants of: B1
Details: with cc070_human C3orf70, A6NLC5
Remark: another data set of the same source

Variant	effect of a mutation on the interaction
G386D	with no effect

Variants of: B2
Details: with braf_human BRAF

Variant	effect of a mutation on the interaction
K49E	disrupting interaction strength

Variants of: B3
Details: with aurka_human AURKA

Variant	effect of a mutation on the interaction
R361H	with no effect

Variants of: B3
Details: with aurka_human AURKA
Remark: another data set of the same source

Variant	effect of a mutation on the interaction
R361C	with no effect

Variants of: B3
Details: with aurka_human AURKA
Remark: another data set of the same source

Variant	effect of a mutation on the interaction
D351H	with no effect

Variants of: B3
Details: with aurka_human AURKA
Remark: another data set of the same source

Variant	effect of a mutation on the interaction
G386D	with no effect

Variants of: B4
Details: with fancj_human BRIP1, Q9BX63

Variant	effect of a mutation on the interaction
G386D	with no effect

Variants of: B4
Details: with fancj_human BRIP1, Q9BX63
Remark: another data set of the same source

Variant	effect of a mutation on the interaction
D351H	with no effect
